In doi:10.1101/2021.08.20.457142:

B1: MKK6 D-site peptide / p38-alpha (MAPK14) L195A, full length (parent complex)
chain 1: SQSKGKKRNPGLKIPKEAFEQP
chain 2: MSQERPTFYRQELNKTVWEVPERYQNLSPVGSGAYGSVCAAFDTKTGHRVAVKKLSRPFQSIIHAKRTYRELRLLKHMKHENVIGLLDVFTPARSLEEFNDVYLVTHLMGADLNNIVKCQKLTDDHVQFLIYQILRGLKYIHSADIIHRDLKPSNLAVNEDCELKILDFGLARHTDDEMTGYVATRWYRAPEIMANWMHYNQTVDIWSVGCIMAELLTGRTLFPGTDHIDQLKLILRLVGTPGAELLKKISSESARNYIQSLAQMPKMNFANVFIGANPLAVDLLEKMLVLDSDKRITAAQALAHAYFAQYHDPDDEPVAEPYDQSFESRDFLIDEWKSLTYDEVISFVPPPLDQEEMES

Variants of: B1

First: chain 1 SQSKGMKRNPGLKIPKEAFEQP
Second: chain 1 SQSKGYKRNPGLKIPKEAFEQP
The screen value of the first is higher: 1.22 Z-score of the enrichment rate within one screen of 711 sequences for the first, 0.469 Z-score of the enrichment rate within one screen of 711 sequences for the second.

First: chain 1 SQAKGAKRNPGLKIPKEAFEQP
Second: chain 1 SQAKGKKRNPGLKIPKEAFEQP
The screen value of the first is lower: 0.57 Z-score of the enrichment rate within one screen of 711 sequences for the first, 1.56 Z-score of the enrichment rate within one screen of 711 sequences for the second.

Going from chain 1 SQYKGKKRNPGLKIPKEAFEQP to chain 1 SQRKGKKRNPGLKIPKEAFEQP, the screen value rises from 1.82 Z-score of the enrichment rate within one screen of 711 sequences to 2.3 Z-score of the enrichment rate within one screen of 711 sequences.

Compared with chain 1 SQGKGKKRNPGLKIPKEAFEQP, chain 1 SQQKGKKRNPGLKIPKEAFEQP is higher in screen value: 1.64 Z-score of the enrichment rate within one screen of 711 sequences for the first, 1.81 Z-score of the enrichment rate within one screen of 711 sequences for the second.

First: chain 1 SQSAAKKRNPGLKIPKEAFEQP
Second: chain 1 SQSKGKARNPGLKIAKEAFEQP
The screen value of the first is lower: 0.605 Z-score of the enrichment rate within one screen of 711 sequences for the first, 0.766 Z-score of the enrichment rate within one screen of 711 sequences for the second.

First: chain 1 SQSAGKKRAPGLKIPKEAFEQP
Second: chain 1 SQSAGKKRNAGLKIPKEAFEQP
The screen value of the first is higher: 0.386 Z-score of the enrichment rate within one screen of 711 sequences for the first, -0.0905 Z-score of the enrichment rate within one screen of 711 sequences for the second.

Compared with chain 1 SQSKAKKRNPGLKIPAEAFEQP, chain 1 SQSKGKKANPGLAIPKEAFEQP is lower in screen value: 0.905 Z-score of the enrichment rate within one screen of 711 sequences for the first, -1.04 Z-score of the enrichment rate within one screen of 711 sequences for the second.

Going from chain 1 SQSKGKKRNPGLKAPAEAFEQP to chain 1 SQSAGAKRNPGLKIPKEAFEQP, the screen value falls from -0.243 Z-score of the enrichment rate within one screen of 711 sequences to -0.342 Z-score of the enrichment rate within one screen of 711 sequences.

Compared with chain 1 SQSKGKKRNPGPKIPKEAFEQP, chain 1 SQSKGKKRNPGCKIPKEAFEQP is lower in screen value: -0.143 Z-score of the enrichment rate within one screen of 711 sequences for the first, -0.618 Z-score of the enrichment rate within one screen of 711 sequences for the second.

First: chain 1 SQSKGKKRNPGWKIPKEAFEQP
Second: chain 1 SQSKAKKRNAGLKIPKEAFEQP
The screen value of the first is lower: -0.0439 Z-score of the enrichment rate within one screen of 711 sequences for the first, 0.354 Z-score of the enrichment rate within one screen of 711 sequences for the second.

Compared with chain 1 SQSKGKKRAPGAKIPKEAFEQP, chain 1 SQSAGKKRNPALKIPKEAFEQP is higher in screen value: -0.96 Z-score of the enrichment rate within one screen of 711 sequences for the first, 0.565 Z-score of the enrichment rate within one screen of 711 sequences for the second.

First: chain 1 SQSKGKKRWPGLKIPKEAFEQP
Second: chain 1 SQSKGKKRQPGLKIPKEAFEQP
The screen value of the first is higher: 1.99 Z-score of the enrichment rate within one screen of 711 sequences for the first, 0.874 Z-score of the enrichment rate within one screen of 711 sequences for the second.

Compared with chain 1 SQSKGKKRNPWLKIPKEAFEQP, chain 1 SQSKGKKRNPILKIPKEAFEQP is lower in screen value: 0.816 Z-score of the enrichment rate within one screen of 711 sequences for the first, 0.58 Z-score of the enrichment rate within one screen of 711 sequences for the second.

First: chain 1 SQSKGKKRNPTLKIPKEAFEQP
Second: chain 1 SQSKGKARAPGLKIPKEAFEQP
The screen value of the first is higher: 1.22 Z-score of the enrichment rate within one screen of 711 sequences for the first, 0.105 Z-score of the enrichment rate within one screen of 711 sequences for the second.

Compared with chain 1 SQSKGKIRNPGLKIPKEAFEQP, chain 1 SQSKGKNRNPGLKIPKEAFEQP is higher in screen value: 0.69 Z-score of the enrichment rate within one screen of 711 sequences for the first, 1.02 Z-score of the enrichment rate within one screen of 711 sequences for the second.

Going from chain 1 SQSKGKYRNPGLKIPKEAFEQP to chain 1 SQSKGKPRNPGLKIPKEAFEQP, the screen value falls from 0.574 Z-score of the enrichment rate within one screen of 711 sequences to 0.368 Z-score of the enrichment rate within one screen of 711 sequences.

Compared with chain 1 SQSKGKKRNPGLKMPKEAFEQP, chain 1 SQSKGKKRNQGLKIPKEAFEQP is lower in screen value: 0.51 Z-score of the enrichment rate within one screen of 711 sequences for the first, 0.417 Z-score of the enrichment rate within one screen of 711 sequences for the second.

Going from chain 1 SQSKGKKRNRGLKIPKEAFEQP to chain 1 SQSKGKKRNIGLKIPKEAFEQP, the screen value falls from 1.04 Z-score of the enrichment rate within one screen of 711 sequences to 0.802 Z-score of the enrichment rate within one screen of 711 sequences.

First: chain 1 SQSKGKKRNHGLKIPKEAFEQP
Second: chain 1 SQSKPKKRNPGLKIPKEAFEQP
The screen value of the first is lower: 1.57 Z-score of the enrichment rate within one screen of 711 sequences for the first, 1.65 Z-score of the enrichment rate within one screen of 711 sequences for the second.

Compared with chain 1 SQSKIKKRNPGLKIPKEAFEQP, chain 1 SQSKRKKRNPGLKIPKEAFEQP is higher in screen value: 2.27 Z-score of the enrichment rate within one screen of 711 sequences for the first, 3.17 Z-score of the enrichment rate within one screen of 711 sequences for the second.

Going from chain 1 SQSKAAKRNPGLKIPKEAFEQP to chain 1 SQSKGKKRNPGLMIPKEAFEQP, the screen value falls from 1.13 Z-score of the enrichment rate within one screen of 711 sequences to 0.213 Z-score of the enrichment rate within one screen of 711 sequences.

First: chain 1 SQSKGKKRNPGLQIPKEAFEQP
Second: chain 1 SQSKGKKKNPGLKIPKEAFEQP
The screen value of the first is lower: -0.188 Z-score of the enrichment rate within one screen of 711 sequences for the first, 1.16 Z-score of the enrichment rate within one screen of 711 sequences for the second.

First: chain 1 SQSKGKKVNPGLKIPKEAFEQP
Second: chain 1 SQSKGKKQNPGLKIPKEAFEQP
The screen value of the first is higher: -0.0927 Z-score of the enrichment rate within one screen of 711 sequences for the first, -0.189 Z-score of the enrichment rate within one screen of 711 sequences for the second.

First: chain 1 SQSKGKKRNPGLKIIKEAFEQP
Second: chain 1 SQSKGKKRNPGLKIHKEAFEQP
The screen value of the first is higher: 1.61 Z-score of the enrichment rate within one screen of 711 sequences for the first, 1.18 Z-score of the enrichment rate within one screen of 711 sequences for the second.

Going from chain 1 SQSKGKKRNPGLKIVKEAFEQP to chain 1 SQSKGKKRNPGLKIDKEAFEQP, the screen value falls from 3.1 Z-score of the enrichment rate within one screen of 711 sequences to 0.934 Z-score of the enrichment rate within one screen of 711 sequences.
